23 molecules from publication PMC7864924, “Structures of active-state orexin receptor 2 rationalize peptide and small-molecule agonist recognition and receptor activation” (Nature Communications, 2021) can be followed below.

Substitutions are numbered along the chain they refer to.

T1: Engineered human orexin receptor 2 (OX2R) truncated after R389, ICL3 residues V261-A291 deleted, with an … (human, UniProt O43614 1-389, residues V261–A291 deleted, biotin on the Avi-tag (BirA biotin-protein ligase))
T1 construct: Orexin receptor type 2 (OX2R), human, truncated after residue R389, part of ICL3 (residues V261-A291) deleted; M1 is said to be present in the construct; Detergent-solubilised receptor (DDM/CHS); The PDB entries hold the construct without the Avi-tag; also called engineered OX2R; orexin receptor type 2; source: biotinylated with BirA; not shown: Avi-tag, N-terminal, kept
T1 sequence (looked up): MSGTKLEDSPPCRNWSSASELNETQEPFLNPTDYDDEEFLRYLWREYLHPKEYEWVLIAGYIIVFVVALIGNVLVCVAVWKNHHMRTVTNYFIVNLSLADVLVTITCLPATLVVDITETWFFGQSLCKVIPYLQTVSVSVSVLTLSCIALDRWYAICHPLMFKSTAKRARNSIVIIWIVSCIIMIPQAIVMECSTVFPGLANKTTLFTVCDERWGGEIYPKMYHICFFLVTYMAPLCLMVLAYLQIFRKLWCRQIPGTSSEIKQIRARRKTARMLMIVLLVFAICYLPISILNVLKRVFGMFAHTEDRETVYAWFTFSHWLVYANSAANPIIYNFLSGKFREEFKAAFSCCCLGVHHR

T2: wildtype OX2R (Homo sapiens, UniProt O43614)
T2 sequence (O43614 1-444): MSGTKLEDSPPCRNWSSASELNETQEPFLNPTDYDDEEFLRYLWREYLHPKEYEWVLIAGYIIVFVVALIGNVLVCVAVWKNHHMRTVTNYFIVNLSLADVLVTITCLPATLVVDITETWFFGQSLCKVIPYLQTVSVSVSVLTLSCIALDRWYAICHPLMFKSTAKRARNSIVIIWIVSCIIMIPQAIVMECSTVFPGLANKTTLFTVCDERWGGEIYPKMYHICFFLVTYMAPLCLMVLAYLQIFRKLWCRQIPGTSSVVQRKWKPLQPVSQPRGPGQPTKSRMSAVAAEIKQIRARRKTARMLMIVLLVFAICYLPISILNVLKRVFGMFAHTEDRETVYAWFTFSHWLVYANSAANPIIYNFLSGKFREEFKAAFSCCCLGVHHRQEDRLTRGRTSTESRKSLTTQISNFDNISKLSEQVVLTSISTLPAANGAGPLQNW

B1: 43 (VHH)
VHH: QVQLVESGGGLVQAGGSLRLSCAASGFPVSYIGMEWYRQAPGKEREWVAAITGFGHWTAYADSVKGRFTISRDNAKNTVYLQMNSLKPEDTAVYYCEVQVGAKYYGQGTQVTVS
B2: 40 (VHH)
VHH: QLQLVESGGGLVQAGGSLRLSCAASGFPVRSYTMYWYSQAPGKEREWVAAINSQGNTTAYADSVKGRFTISRDNAKNTVYLQMNSLKPEDTAVYYCEVYVGYWYHGQGTQVTVS
B3: 57 (VHH)
VHH: B2 VHH with L2V, R30S, S31Q, Y32K, S38R, N52A, Q54E, N56Q, T57K, W103F
B4: 50 (VHH)
VHH: B2 VHH with L2V, R30W, S31H, Y32D, S38R, N52G, Q54T, T57L, W103F
B5: 49 (VHH)
VHH: B2 VHH with L2V, R30Y, S31N, Y32N, S38R, N52S, Q54G, N56S, T57N, W103F
B6: 48 (VHH)
VHH: B2 VHH with L2V, R30A, S31M, Y32N, S38R, N52T, Q54S, N56E, T57H, W103F
B7: 39 (VHH)
VHH: QVQLVESGGGLVQAGGSLRLSCAASGFPVKWKSMAWYRQAPGKEREWVAAISSWGWYTEYADSVKGRFTISRDNAKNTVYLQMNSLKPEDTAVYYCYVYVGHTYHGQGTQVTVS
B8: 52 (VHH)
VHH: B7 VHH with W54Y, Y57H, Y97T, Y99N, H102K, T103G, H105E
B9: 41 (VHH)
VHH: QVQLVESGGGLVQAGGSLRLSCAASGFPVNSYVMYWYRQAPGKEREWVAAIGSTGEYTAYADSVKGRFTISRDNAKNTVYLQMNSLKPEDTAVYYCEVFVGYFYYGQGTQVTVS
B10: 53 (VHH)
VHH: B9 VHH with S31T, Y32R, V33S, G52A, E56W, Y57S, F99Y, Y105H
B11: 54 (VHH)
VHH: B9 VHH with N30Q, S31H, G52D, T54S, E56A, Y57H, A59V, F99Y, Y102W, Y105H
B12: 47 (VHH)
VHH: B9 VHH with N30D, Y32K, V33T, G52A, T54A, E56H, Y57L, F99H, Y102W, Y105H
B13: 42 (VHH)
VHH: B9 VHH with S31T, Y32R, V33S, G52A, E56W, Y57S, F99E, F103W
B14: Synthetic nanobody clone 56 (VHH)
VHH: QVQLVESGGGLVQAGGSLRLSCAASGFPVVSYNMKWYRQAPGKEREWVAAIYSFGSLGSWTHYADSVKGRFTISRDNAKNTVYLQMNSLKPEDTAVYYCHVYVGATYYGQGTQVTVS
notes: synthetic nanobody selected from the libraries of Zimmermann and coworkers by ribosome display and phage display; Host, tags and purification are told only for Sb51 (clone 51); also called Clone No. 56
B15: Synthetic nanobody clone 45 (VHH)
VHH: B2 VHH with L2V, R30Y, S31T, S38R, N52T, Q54E, N56I, T57S, W103F
notes: synthetic nanobody selected from the libraries of Zimmermann and coworkers by ribosome display and phage display; Host, tags and purification are told only for Sb51 (clone 51); also called Clone No. 45
B16: Synthetic nanobody clone 46 (VHH)
VHH: B9 VHH with N30D, S31A, G52A, T54Q, E56H, Y57P, F99Y, Y105H, Q110R
notes: synthetic nanobody selected from the libraries of Zimmermann and coworkers by ribosome display and phage display; Host, tags and purification are told only for Sb51 (clone 51); also called Clone No. 46
B17: Synthetic nanobody clone 55 (VHH)
VHH: B2 VHH with L2V, R30Q, Y32H, S38R, Q54T, N56Q, T57G, W103F
notes: synthetic nanobody selected from the libraries of Zimmermann and coworkers by ribosome display and phage display; Host, tags and purification are told only for Sb51 (clone 51); also called Clone No. 55
B18: Synthetic nanobody clone 44 (VHH)
VHH: B2 VHH with L2V, R30D, S31T, S38R, Q54N, N56H, T57H, Y102W, H105Y
notes: synthetic nanobody selected from the libraries of Zimmermann and coworkers by ribosome display and phage display; Host, tags and purification are told only for Sb51 (clone 51); also called Clone No. 44
B19: Synthetic nanobody clone 13 (VHH)
VHH: QVQLVESGGGLVQAGGSLRLSCAASGFPVNAREMYWYRQAPGKEREWVAAIVSKGSHTEYADSVKGRFTISRDNAKNTVYLQMNSLKPEDTAVYYCNVKDFGWWAVYYDYWGQGTQVTVS
notes: synthetic nanobody selected from the libraries of Zimmermann and coworkers by ribosome display and phage display; Host, tags and purification are told only for Sb51 (clone 51); also called Clone No. 13
B20: Synthetic nanobody clone 15 (VHH)
VHH: B19 VHH with N30K, A31Q, Y35A, V52W, S56A, E59V, A105N, V106R, Y107Q
notes: synthetic nanobody selected from the libraries of Zimmermann and coworkers by ribosome display and phage display; Host, tags and purification are told only for Sb51 (clone 51); also called Clone No. 15
B21: Synthetic nanobody clone 7 (VHH)
VHH: B19 VHH with N30L, A31R, R32Q, Y35F, V52W, H57T, F101Y, A105N, V106N, Y107W
notes: synthetic nanobody selected from the libraries of Zimmermann and coworkers by ribosome display and phage display; Host, tags and purification are told only for Sb51 (clone 51: E. coli C41(DE3), MBP fusion cleaved by TEV); also called Clone No. 7
B22: synthetic nanobody Sb51 (VHH)
VHH: QVQLVESGGGLVQAGGSLRLSCAASGFPVGRVMYWYRQAPGKEREWVAAISSHGDMTAYADSVKGRFTISRDNAKNTVYLQMNSLKPEDTAVYYCEVYVGYFYHGQGTQVTVS
notes: in the coordinates deposited here (complex with compound 1); Supplementary Data 1 lists the hits from which Sb51 was chosen; source: E. coli C41(DE3) periplasm, MBP fusion, purified (NiNTA, TEV cleavage, NiNTA, cation exchange); not shown: His10, N-terminal, cleaved

For one assay, the target named is T3, engineered OX2R carrying an additional amino-terminal Avi-tag, biotinylated (Homo sapiens, UniProt O43614, residues V261–A291 deleted, biotin on the Avi-tag (BirA biotin-protein ligase)).
Test: not given
Details: not given
Regarding B1, the binding result is on record as “binds”.
In the case of B2, the binding result is on record as “binds”.
As for B3, the binding result is listed as “binds”.
B4: the binding result is reported as “binds”.
On to B5, for which the binding result is “binds”.
On to B6, for which the binding result is listed as “binds”.
As for B7, the binding result is reported as “binds”.
Still for that read-out and setting: the value for B8 was “binds”; that for B9 was “binds”.
Turning to B10, the binding result was “binds”.
With B11, the binding result is listed as “binds”.
Regarding B12, the binding result is reported as “binds”.
On to B13, for which the binding result was “binds”.

Another assay addresses T1, Engineered human orexin receptor 2 …. Kind of assay: grating-coupled interferometry; WAVE system (Creoptix); agonist-bound OX2R immobilised via the biotinylated Avi-tag on a neutravidin-coated WAVEchip 4PCP; nanobody as analyte. Particulars: both partners purified.
Consider B14, for which the Kd was 0.5 nM.
In turn, B15 returned a Kd of 11 nM.
As to B16, the Kd worked out at 4.2 nM.
Consider B17, for which the Kd is 7.3 nM.
For the molecule B18, the Kd was found to be 7.7 nM.
In turn, B19 came in with a Kd of 12 nM.
With B20, the affinity, expressed as Kd, was 300 nM.
Still for that read-out and setting: under B21 stands 11 nM.

A further assay deals with T2, wildtype OX2R. Kind of assay: Saturation binding of 125I-OxA to wildtype OX2R. Particulars: CHO cell membranes, wild-type OX2R, room temperature, 6 h, pH 7.4; mean ± s.e.m., n = 3.
In the case of “125I-OxA: radioligand, 125I-labelled OxA (PerkinElmer) (QPLPDCCRQKTCSCRLYELLHGAGNHAAGILTL)”, the “Dissociation constant, pKD” value turned out to be 9.12 ± 0.05.

The target in the next assay is T3, engineered OX2R carrying an additional …. Kind of assay: grating-coupled interferometry; WAVE system (Creoptix); agonist-bound OX2R immobilised via the biotinylated Avi-tag on a neutravidin-coated WAVEchip 4PCP. The note with it: both partners purified.
The molecule B22 yielded an equilibrium dissociation constant (Kd) of about 0.6 nM.

By Kd is commonly meant a measure of binding affinity in units of concentration.
